What was measured:
Assay in all cases: SPR, antibody captured, C2 as analyte;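 note: biacore at 37 °C, anti-C2 mAbs held by immobilised goat anti-human IgG, C2 alanine or serine mutants injected, double-referenced sensorgrams fitted to a 1:1 kinetic or steady-state model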
human C2 G427A = target: T1, human C2 G427A (human, UniProt P06681 21-752)
T1 sequence: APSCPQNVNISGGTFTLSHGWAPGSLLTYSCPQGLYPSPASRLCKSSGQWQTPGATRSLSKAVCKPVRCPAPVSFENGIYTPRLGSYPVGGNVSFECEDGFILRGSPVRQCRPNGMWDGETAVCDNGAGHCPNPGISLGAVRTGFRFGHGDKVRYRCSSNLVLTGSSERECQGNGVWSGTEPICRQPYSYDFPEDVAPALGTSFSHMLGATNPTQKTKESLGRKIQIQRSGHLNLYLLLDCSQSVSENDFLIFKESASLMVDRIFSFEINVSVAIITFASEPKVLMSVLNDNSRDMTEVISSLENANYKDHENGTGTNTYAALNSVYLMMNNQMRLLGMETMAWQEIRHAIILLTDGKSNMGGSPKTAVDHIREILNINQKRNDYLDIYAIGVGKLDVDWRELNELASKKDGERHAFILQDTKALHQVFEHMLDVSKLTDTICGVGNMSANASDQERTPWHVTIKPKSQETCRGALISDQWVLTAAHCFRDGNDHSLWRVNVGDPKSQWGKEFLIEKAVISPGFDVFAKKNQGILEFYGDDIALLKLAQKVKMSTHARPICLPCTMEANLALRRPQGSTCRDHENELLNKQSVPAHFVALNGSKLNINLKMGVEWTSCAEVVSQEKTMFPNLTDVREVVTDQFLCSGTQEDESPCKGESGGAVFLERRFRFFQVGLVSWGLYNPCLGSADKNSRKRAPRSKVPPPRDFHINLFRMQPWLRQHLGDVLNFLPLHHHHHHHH

human C2 K415A = target: T2, human C2 K415A (human, UniProt P06681 21-752)
T2 sequence: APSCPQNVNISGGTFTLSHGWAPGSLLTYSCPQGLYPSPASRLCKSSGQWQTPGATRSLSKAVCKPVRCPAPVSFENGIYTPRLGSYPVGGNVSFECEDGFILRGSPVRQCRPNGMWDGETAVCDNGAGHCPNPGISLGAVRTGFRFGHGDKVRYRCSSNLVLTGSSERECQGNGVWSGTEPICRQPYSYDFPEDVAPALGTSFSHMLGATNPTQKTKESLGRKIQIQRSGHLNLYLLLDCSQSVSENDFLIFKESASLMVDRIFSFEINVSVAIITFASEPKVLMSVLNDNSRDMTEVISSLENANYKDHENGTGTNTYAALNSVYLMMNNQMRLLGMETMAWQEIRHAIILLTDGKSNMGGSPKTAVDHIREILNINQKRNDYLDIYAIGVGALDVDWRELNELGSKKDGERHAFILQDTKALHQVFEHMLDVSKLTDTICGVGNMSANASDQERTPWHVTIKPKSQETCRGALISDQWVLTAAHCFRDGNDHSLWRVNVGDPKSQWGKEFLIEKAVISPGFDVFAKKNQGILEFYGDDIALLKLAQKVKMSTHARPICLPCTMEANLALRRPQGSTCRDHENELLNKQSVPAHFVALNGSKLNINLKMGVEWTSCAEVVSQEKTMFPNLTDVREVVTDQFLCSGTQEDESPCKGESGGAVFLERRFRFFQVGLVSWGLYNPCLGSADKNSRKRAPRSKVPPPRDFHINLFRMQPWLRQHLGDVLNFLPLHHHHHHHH

human C2 A436S = target: T3, human C2 A436S (human, UniProt P06681 21-752)
T3 sequence: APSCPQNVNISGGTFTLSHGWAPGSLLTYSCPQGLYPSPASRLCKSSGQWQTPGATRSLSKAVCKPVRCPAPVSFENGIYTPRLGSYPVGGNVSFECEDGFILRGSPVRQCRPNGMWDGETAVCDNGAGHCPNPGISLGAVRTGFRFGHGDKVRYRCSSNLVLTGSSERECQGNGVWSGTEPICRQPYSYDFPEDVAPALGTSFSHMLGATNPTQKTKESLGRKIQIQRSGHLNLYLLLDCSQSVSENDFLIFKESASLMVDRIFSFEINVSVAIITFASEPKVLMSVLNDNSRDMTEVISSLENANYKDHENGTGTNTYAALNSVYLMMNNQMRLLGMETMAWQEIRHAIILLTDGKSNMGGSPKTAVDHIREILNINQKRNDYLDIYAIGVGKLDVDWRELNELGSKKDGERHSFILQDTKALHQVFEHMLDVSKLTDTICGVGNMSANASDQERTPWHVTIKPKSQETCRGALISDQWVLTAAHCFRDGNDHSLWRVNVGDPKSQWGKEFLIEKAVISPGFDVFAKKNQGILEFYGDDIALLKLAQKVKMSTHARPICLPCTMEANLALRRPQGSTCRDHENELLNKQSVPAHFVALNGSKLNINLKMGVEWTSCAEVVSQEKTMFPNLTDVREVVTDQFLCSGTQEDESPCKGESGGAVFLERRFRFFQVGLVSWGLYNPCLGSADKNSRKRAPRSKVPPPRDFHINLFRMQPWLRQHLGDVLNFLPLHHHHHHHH

human C2 E267A = target: T4, human C2 E267A (human, UniProt P06681 21-752)
T4 sequence: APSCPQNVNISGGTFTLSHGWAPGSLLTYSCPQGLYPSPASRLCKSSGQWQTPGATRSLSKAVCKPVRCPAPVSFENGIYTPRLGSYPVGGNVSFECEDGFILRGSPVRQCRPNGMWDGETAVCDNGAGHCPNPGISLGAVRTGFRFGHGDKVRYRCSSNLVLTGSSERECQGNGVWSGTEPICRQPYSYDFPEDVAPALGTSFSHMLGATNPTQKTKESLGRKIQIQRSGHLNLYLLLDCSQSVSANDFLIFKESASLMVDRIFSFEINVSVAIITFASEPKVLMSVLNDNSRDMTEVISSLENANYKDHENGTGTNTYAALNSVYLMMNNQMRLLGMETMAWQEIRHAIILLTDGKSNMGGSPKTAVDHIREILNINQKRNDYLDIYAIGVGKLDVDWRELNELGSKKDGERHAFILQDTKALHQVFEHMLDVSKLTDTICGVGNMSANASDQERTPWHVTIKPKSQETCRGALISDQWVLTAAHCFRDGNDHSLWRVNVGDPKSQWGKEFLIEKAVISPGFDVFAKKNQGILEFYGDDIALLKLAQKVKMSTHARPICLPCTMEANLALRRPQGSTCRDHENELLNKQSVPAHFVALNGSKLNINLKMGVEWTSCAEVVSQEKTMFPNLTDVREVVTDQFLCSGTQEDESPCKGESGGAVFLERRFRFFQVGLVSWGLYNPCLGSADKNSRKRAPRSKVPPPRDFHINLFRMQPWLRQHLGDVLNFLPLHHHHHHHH

B1: RF16-242 (antibody, human IgG4 S228P, lambda, V domains shown)
VH: EVQLLQSGAEVKKPGESLKISCKGSGYSFTSYWIGWVRQMPGKGLEWMGIIYPGDSDTRYSPSFQGQVTISADKSISTAYLQWSSLKASDTAMYYCARRGHYGDYFDYWGQGTLVTVSS
VL: SYELTQPPSVSVSPGQTARITCSGDALPKKYAYWYHQKSGQAPVLVIYEDRRRPSEIPERFSGSSSGTMATLTITGAQVEDEGVYFCYSRDRAGNQRVFGGGTQLTVLG
notes: pH-dependent anti-C2 antibody from a phage display library
Q: What does the source list for B1?
A: Kd (human C2 G427A): 4 nM; Kd (human C2 K415A): 4.1 nM; Kd (human C2 A436S): 4.9 nM; Kd (human C2 E267A): 12.1 nM
